Test results: the nanobody polyreactivity screen of Harvey et al. (2022)

Assay: yeast display, Sf9 membrane polyspecificity reagent, FACS + sequencing; frameworks hold sequencing errors
Method in brief: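 After 36–48 hours of galactose induction, yeast (Saccharomyces cerevisiae BJ5465) displaying a synthetic nanobody library were stained at 4 °C for 1 hour with 10% biotinylated, detergent-solubilized Sf9 membrane reagent. Streptavidin microbeads enriched the stained cells before FACS sorting into low and high (top ~1%) gates on anti-HA and streptavidin fluorescence. Each clone's polyreactivity label reflects its gate of origin.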

Row | Sequence | polyreactivity (PSR sort gate)
1 | QVQLVESWGGLVQAGGSLRLSCAASGFTFRYYAMGWYRQAPGKERELVAAITGSGTRTYYADSVKGRFTISRDNAKNTVYLQMNSLKPEDTAVYYCNAPRQPRWFDYWGQGTQVTVSS | high polyreactivity
2 | QVQLVESGGGLVQAGGSLRLSCAASGRIFKYYAMGWYREAPGKERELVAAIDWRGDSTYYADSVKGRFTISRDHAKNTVYLQMNSLKPEDTAVYYCAVVGTRGYHGYDSWGQGTQVTVSS | low polyreactivity
3 | QVRLVESGGGLVQAGRSLRLSCAASGRIFWNYAMGWYRQAPGKERELVATIDKSGGSTRYADSVKGRFTISRDTAKNTVYLQMNSLKPEDTAVYYCAARGPASRGFRGARSGLTFDYWGQGTQVTVSS | low polyreactivity
4 | QVQLVESGGGLVQAGGSLRLSCAASGSTLGYYAMGWYRQAPGIVRELVAAISWSGGRTYYADSVKGRFTISRDYAKNTVYLQMKSLKPEDTAVYYCNALYRTHYTGSVYYSWGQGTQVSVSS | high polyreactivity
5 | QVQLVESGGGLVQAGGSLRLSCAASGSIFIINTMGWYRQAPGKERELVAAISWGGTDTNYADSVKGRFTISRDNAKNTVYLQMNSLKPEDTAVYYCNTDQDLVRSYDYWGHGTQVTVSS | low polyreactivity
6 | QVQLVESGGGLVQAGGSLRLSCAASGSTIGRYAMGWYRQAPGKERELVAAISSSGDRTYYADSVKGRFTISRDNAKNTVYLQMNSLKPEDTAVYYCNSRRLFSGYDYWGQGTQVTVSS | high polyreactivity
7 | QVQLVESGAGLVQAGGSLRLSCAASGSIFNSYAMGWYRQPPGKERELVAAISKAGGSTYYADSVKGRFTISRDNAKNTVYLQMNSQKPEDTAVYYCAARYGRCYDSAYNYWGQGTQVTVSS | high polyreactivity
8 | QVQLVESGGGLVQAGGSLRFSCAASGNTFYQYAMGWYRQAPGKERELVAAIVWSGGTTYYADSVKGRFTISRDNAKNTVYLQMTSLKPEDTAVYYCNADYDRGPYDYDSWGQGTQVTVSS | low polyreactivity
9 | QVHLVESGGGLVQAGGSLRLSCAASGSTFHKYALGWYRQAPGKEREYVAAISWSGGSTYYADSVKGRFTISRDNAKYTVYLQMNSLKPEDTAVYFCAARGNRYAYPRKYDYWGQGTQVTVSS | high polyreactivity
10 | QVQLVESGGCLVQAGGSLRLSCSASGLTFRYYAMGWYRQAPGKESELVAAITRRGSTYYADSVKGRFTISRDIAKNTVYLQMNSLKPEDSAVYYCATVTGFHSSPLRDLDYWGQGTLVTVSS | high polyreactivity
11 | QVQLVESGGGLVQAGGSLRLSCAASGFTFRRYAMGWYRQAPWKESELVAAITRDGITNYAASVKGRFTLSRDNAKNTVYFQMNILKPEDTAVYYCARRTGRARLDYWGQGTQVSVSS | high polyreactivity
12 | QVQLVESGGGLVQAGGSLRLSCAASGSIFRKNAMGWYRQAPGKERELVATISGGGSTTYADSVKGRFTISRDNAKNTVYLQMNSLKPEDTAVYYCAARSTWFQIRYGYWGQGTQVTVSS | high polyreactivity
13 | QVQLVESGGGLVQAGGSLRLSCAASGSTFEANAMGRYRQAPGKERELVAVITWTGGSTYYADSVKGRFTISRDNAKNTVYLQMNSLKPEDTAVYYCAADGVVPGRFFWPAHEYDYWGQGTQVTVSS | low polyreactivity
14 | QVQLLESGAGLVQAGGSLRLSCAAYGSTSYDYAMGWYRQAPGKERELVAAISGSSSTTYYADSVKGRFTISRDNAKNTVYLQMNSLKPEDTAVYYCNAVTTSGYGYGYWGQGTQVTVSS | low polyreactivity
15 | QVQLVESGGGLVQAGGSLRLSCAASGITIWNNAMGWSRQAPGKESELVATISSNGGRTYYADSVKGRFTISRDNAKNTVYLQMNSLKPEDTAVYYCNAARRAYGYNYWGQGTQVTVSS | low polyreactivity
16 | QVQLVESGGGLVQAGGSLRLSCAASGRTIPFYAMGWYRQAHGKERELVDAIDSGGNTYADSVKGRFTISRDNAKNTVYLQMISLKPEDTAVYYCAVDGGEFSSYGYWGQGTQVTVSS | low polyreactivity

Row | Sequence | polyreactivity (PSR sort gate)
17 | QVQLVESGGVLVQAGGSLRLSCAASGGIFGNYAMGWYRQAPGKERELVAVIDSSDGSTHYADSVKGRFTISRDNAKITVYLQMNSLKPEDTALYYCATQGFWNYWTFDYWGQGTQVTVSS | low polyreactivity
18 | QVQLVESGGGLVQAGGSLRLSCAASGLIFSFYALGWYRQAPGKERELVAAINRSGGSTYYADSVKGRFTISRDNSKNTVYLQMNSLKPEDTAVYYCAARNAFGTYYYWGQGTQVTVSS | high polyreactivity
19 | QVHLVDSGGGLVQAGGSLRLSCAASGFTFWRYTMGWYRQAPGKERELVAAISGGTTTYYADSVKGRFTISRDNAKNTVYLQMNSLKPEDTAVYYCAAYSQRARTYDYWGQGTQVTVSS | high polyreactivity
20 | QVQLVESGGGLVQAGGSLRLSCAASGLIFPYYTMGWYRQAPGKEGELVAVINRGGSTSYADSVKGRFTISRDNAKNTFYLQMNSLKPEDTAVYYCAARKWRYYSHVIYDYWGQGTQVTVSS | high polyreactivity
21 | QVQLVESGGGLVQAGGSLRLSCAASGRTFFRNAMGWYRQAPGKERELVAGISRSGGSTYYADSVKGRFTISRDNAKNTVYLQMNSLKPEDTAVYYCAASFRFYRTGYYYWGQGTQVTVSS | high polyreactivity
22 | QVQLVESGGGLVQAGGSLRLSCAASGFIFTDNAMGWYRQAPGKESEFVAAITYSGGSTYYADSVKGRFTISRDNAKNTVYLQMNSLKPEDTAVYYCNKDFFPAPVVVTAYEYEYWGQGSQVTVSS | low polyreactivity
23 | QVQLVESGGGLVQAGGSLRLSCAASGSILLNNAMGWYRQAPGKERELVAAISLSGGGSTYYADSVKGRFTISRDNAKNTVYLQMNSLKPEDTAVYYCNADDPYLYYDSYDYWGQGTQVTVSS | low polyreactivity
24 | QVQLVESGGGLVQAGGSLRLSCAASGFTFRYYTMGWYRQAPGKERELVASISRRGGSTYYADSVKGRFTISRDNAKNTVYLQMNSLKPEDTAVYYCNTLSQVFASRAPKFDYWGHGTQVTVSS | high polyreactivity
25 | QVQLVESGAGFFQAGGSLRVSCAASGRTFPVYAMGWYRHAPGNERELVARINSGGRTTYADSVKGRFTISRDNAKNTVYLQMISLNPEDTAVYYCNARSWYYVWRKGYRHGDYWGQGTQVTVSS | high polyreactivity
26 | QVQLGESGGGLVQAGGSLRLSCAASGNTFYRNAMGWYRQAPGKERELVAAIDYSAGSTYYADCVKGRFTISRDNAKNTVYLQMHSLKPEDTADDYCAAVARTSRGRRYYSWGQGTQVTVSS | low polyreactivity
27 | QVQLVESGGGLVQAGGSLRLSCAASGSIYYTNAMGWYRQAPGKERELVAAIRWSGGRTYYADSVKGRFTISRDNAKNTVYLQMNSLKPEDTAVYYCNKVPRTPIPYKYGYWGQGTQVTVSS | high polyreactivity
28 | QVQLVESGGGLVQAGGSLRLSCAASGSTFAYYAMGRYRQAPGKERELVAAISTIAGRTYYADSVKGRFTISRDTAKNSVSLQMNSLNPEDTAFYYCNAYWWFFGGYDYWGQGTQVTVSS | high polyreactivity
29 | QDQLVESVGGLDQAGGSLRLSCAASGRIFVHNAMGWYRQAPGKEREFVAAISLRGGSTYYADSVKGRFTISRDNAKNTVYLQMNSLKTEDTAVYYCAAVPAHFYGFDYCGQGTQVTVSS | low polyreactivity
30 | QVQLVDSGGGLVQAGGSLRLSCAASGYTFEAYAMGWYRQAPGKERELVAAINYSGGSTYADSVKGRFTISRDNAKNTVYLQMNSLKPEDTAVYYCATRLYGYWPYGFDYWGQGTQVTVSS | low polyreactivity
31 | QVQLVESGGGLVQAGGSLRLSCAASGSTFPANAMGWYRQAPGKERELVAAISSVGSTNYADSVRGRFTLSRDNAKNTVYLQMNSLKPEDTAVYYCATQPTWYTVGDLDYWGQGTQVTVSS | low polyreactivity
32 | QVQLVESGGGLVQAGGSLRITCAASGIIFGSYAMGWYRQAPGKETELVAAISTSGGSTYYADSVKGRFTISRDNAKNTVYLQMNSLKPEDTAVYYCNKAGVYRDSSRYNYWGQGTQVTVSS | high polyreactivity
